Measured values taken from patent US20040146964.

Tested on: T1, C. elegans HIF-α homologue, wild type
T1 sequence: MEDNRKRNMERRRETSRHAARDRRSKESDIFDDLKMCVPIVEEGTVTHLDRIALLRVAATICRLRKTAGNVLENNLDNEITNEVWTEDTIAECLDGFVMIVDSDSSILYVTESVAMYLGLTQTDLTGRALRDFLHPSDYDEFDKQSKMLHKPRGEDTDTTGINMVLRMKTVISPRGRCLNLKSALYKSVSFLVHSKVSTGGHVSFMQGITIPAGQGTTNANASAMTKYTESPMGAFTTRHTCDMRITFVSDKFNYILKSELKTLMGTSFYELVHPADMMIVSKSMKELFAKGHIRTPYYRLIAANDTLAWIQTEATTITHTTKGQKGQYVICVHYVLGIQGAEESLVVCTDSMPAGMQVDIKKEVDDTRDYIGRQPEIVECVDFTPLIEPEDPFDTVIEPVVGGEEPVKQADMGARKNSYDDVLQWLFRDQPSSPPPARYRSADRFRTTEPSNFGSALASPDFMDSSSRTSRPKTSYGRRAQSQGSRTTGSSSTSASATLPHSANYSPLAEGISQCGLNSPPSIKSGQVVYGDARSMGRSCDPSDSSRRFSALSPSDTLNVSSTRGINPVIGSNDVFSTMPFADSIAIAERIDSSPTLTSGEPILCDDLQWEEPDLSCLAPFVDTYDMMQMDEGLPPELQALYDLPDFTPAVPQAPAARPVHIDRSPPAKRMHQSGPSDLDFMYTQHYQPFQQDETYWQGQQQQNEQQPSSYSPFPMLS

Substance: gene product of the predicted ORF T20B3.7
- modification of HIF-1 read by HA.VHL-1 capture: had no activity in these assays
